The record followed here is patent US20160272721A1 (NEOMICS, published 2016).

B1: AIMP2-DX2 epitope peptide (amino acid residues 42 to 52, GHVQDYGALKD, of the AIMP2-DX2 protein) (peptide)
peptide: GHVQDYGALKD
B2: H5 Fab (Fab, V domains shown)
VH: QEQLVESGGGLVTPGGTLTLTCTASGFTISSYHMTWVRQAPGKGLEWIGVISNSGGTSYANWAKGRFTISKTSTTVDLKITSPTTEDTATYFCVRGVPGINSNLWGQGTLVTISS
VL: AQVLTQTPSSVSAAVGGTVTINCQSSQSVYSGNWLAWYQQKPGQPPKLLIYSTSTLASGVPSRFKGSGSGTQFTLTVSDLECDDAATYYCAGDYDGYKNAFGGGTKVVVKR
notes: Detected with anti-HA tag or anti-human Fab antibody, so vector tags may be present; they are not described; also called antibody fragment H5 Fab; antibody (Fab) of colon H5

The test “H5 Fab” has as its target B2. In words: antigen pre-adsorption, 100 µg/ml peptide with H5 Fab, Western blot of H460 lysate (FIG. 18). On the procedure: Firstly, antigen pre-adsorption analysis was conducted in order to confirm whether the prepared H5 Fab specifically binds to the AIMP2-DX2. After electrophoresis of cell lysates of H460 lung cancer cells which expressed the AIMP2-DX2, Western blot analysis was performed using a H5 Fab in the presence of 100 μg/ml of the AIMP2-DX2 epitope polypeptide ([…]) (indicated as “+” in FIG. 18) and a H5 Fab without the addition of the AIMP2-DX2 epitope peptide (indicated as “−” in FIG. 18), respectively.

Test [1] has as its target T1, AIMP2-DX2 with twenty three (23) N-terminal amino acids deleted, fused with strep tag (human, UniProt Q13155 24-320).
T1 construct: Expressed in HEK293T cells, tested in cell lysate; also called Δ23-DX2; Δ23; not shown: strep tag of thirty amino acids including a linker peptide
T1 sequence: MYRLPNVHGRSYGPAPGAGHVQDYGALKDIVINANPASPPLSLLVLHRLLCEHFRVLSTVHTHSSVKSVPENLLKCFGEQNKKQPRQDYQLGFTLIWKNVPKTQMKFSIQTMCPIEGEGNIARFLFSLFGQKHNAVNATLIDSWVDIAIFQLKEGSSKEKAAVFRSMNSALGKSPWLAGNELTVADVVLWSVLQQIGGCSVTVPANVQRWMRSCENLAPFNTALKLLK
Nature of the test: Western blot of HEK293T lysates (FIG. 20a). An excerpt: (§1) FIG. 20a and FIG. 20b show a test result of determining the effect of N-terminal amino acid deletion of the AIMP2-DX2 protein on the binding between the H5 Fab and the AIMP2-DX2 protein. […] Being fused with strep tag, the AIMP2-DX2 proteins expressed in HEK293T cells were the full-length AIMP2-DX2 protein (“F-DX2” or “F”) and its N-terminal deleted isotypes (“42-DX2” or “42” for two (2) amino acid deletion; “423-DX2” or “423” for twenty three (23) amino acid deletion; “433-DX2” or “433” for thirty three (33) amino acid deletion), respectively. […] “EV” means an empty vector.
(§2) Further, the effect of N-terminal amino acid deletion of the AIMP2-DX2 protein on the binding between H5 Fab and AIMP2-DX2 protein was analyzed (See FIG. 20). It was reported that N-terminal amino acid residues of the AIMP2-DX2 exert a significant effect on the solubility of the AIMP2-DX2. AIMP2-DX2 derivatives in which the N-terminal two (2), twenty three (23) or thirty three (33) amino acid residues were deleted, respectively, were prepared (See FIG. 20b). The full-length AIMP2-DX2 and its isotypes were fused with strep tag and then expressed in the HEK293T cells, followed by Western blot analysis using H5 Fab.

The target of test [2] is T2, AIMP2-DX2 with two (2) N-terminal amino acids deleted, fused with strep tag (human, UniProt Q13155 3-320).
T2 construct: Expressed in HEK293T cells, tested in cell lysate; also called Δ2-DX2; Δ2; not shown: strep tag of thirty amino acids including a linker peptide
T2 sequence: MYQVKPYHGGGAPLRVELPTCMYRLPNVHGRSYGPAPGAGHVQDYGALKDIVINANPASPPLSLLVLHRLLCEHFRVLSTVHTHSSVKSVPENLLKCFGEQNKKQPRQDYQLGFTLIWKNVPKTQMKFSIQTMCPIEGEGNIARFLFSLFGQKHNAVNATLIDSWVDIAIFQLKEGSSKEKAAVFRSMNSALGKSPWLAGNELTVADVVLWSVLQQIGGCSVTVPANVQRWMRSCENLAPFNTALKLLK
In words: Western blot of HEK293T lysates (FIG. 20a).
From the text: as §1, §2
For orientation: Immunoblotting shows a protein as a band on a membrane.

In test [3] the target is T3, AIMP2-DX2 with thirty three (33) N-terminal amino acids deleted, fused with strep tag (human, UniProt Q13155 34-320).
T3 construct: Expressed in HEK293T cells, tested in cell lysate; also called Δ33-DX2; Δ33; not shown: strep tag of thirty amino acids including a linker peptide
T3 sequence: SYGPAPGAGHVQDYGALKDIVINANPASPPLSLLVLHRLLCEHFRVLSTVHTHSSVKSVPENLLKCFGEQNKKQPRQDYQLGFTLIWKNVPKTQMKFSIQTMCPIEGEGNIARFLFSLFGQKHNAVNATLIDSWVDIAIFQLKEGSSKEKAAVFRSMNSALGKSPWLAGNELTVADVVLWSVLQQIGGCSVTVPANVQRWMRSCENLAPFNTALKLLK
In words: Western blot of HEK293T lysates (FIG. 20a).
From the text: as §1, §2

Test [4] concerns the target T4, AIMP2 protein (wild type, full-length) (human, UniProt Q13155 1-312, limits assumed).
T4 construct: 217 is written here; B42 fusion (pJG4-5) in yeast two hybrid; 35S-labelled in vitro translation product in the pull-down; endogenous in A549, DU145 and H460 cells; also called AIMP2-F; p38
T4 sequence: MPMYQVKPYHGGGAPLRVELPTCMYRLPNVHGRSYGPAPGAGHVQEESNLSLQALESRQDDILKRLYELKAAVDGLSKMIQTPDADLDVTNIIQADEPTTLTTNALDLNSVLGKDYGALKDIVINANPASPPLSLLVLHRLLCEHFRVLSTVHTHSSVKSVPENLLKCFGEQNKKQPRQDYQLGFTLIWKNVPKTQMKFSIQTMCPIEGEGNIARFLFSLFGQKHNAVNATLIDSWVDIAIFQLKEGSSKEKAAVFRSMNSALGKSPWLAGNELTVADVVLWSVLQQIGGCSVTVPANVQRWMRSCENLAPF
In words: Western blot of H460 cell lysates (FIG. 22). On the procedure: Lastly, it was tested whether H5 antibody is capable of differentiating AIMP2-DX2 from wild type AIMP2 protein (See FIG. 22). Western blot analysis was performed on H460 cell lysates using the H5 antibody.

Test [5] deals with B1. Nature of the test: surface plasmon resonance, H5 IgG on CM5 chip, peptide in flow (FIG. 21a). An excerpt:
H5 antibody and IgG proteins were coated on the CM5 chips, while the exemplary AIMP2-DX2 epitope peptide (i.e. amino acid residues 42 to 52 ([…]) as shown in SEQ ID NO: 2 or SEQ ID NO: 17) at various concentrations was flowed over the chip. As shown in FIG. 21a and FIG. 21b, the binding affinity between H5 IgG antibody and the AIMP2-DX2 epitope peptide was indicated in sensorgram. X axis of sensorgram indicates time (second, s), while y axis means response (response unit, RU). The description in a box indicates a concentration of the AIMP2-DX2 epitope peptide in nM.
Still further, the binding affinity between H5 IgG antibody and the exemplary AIMP2-DX2 epitope peptide was determined by using surface plasmon resonance analysis (See FIG. 21). The H5 antibody (IgG) and IgG proteins were coated on the CM5 chips, while the exemplary AIMP2-DX2 epitope peptide at various concentrations was flowed over the chip to monitor the real time association and dissociation between H5 antibody and the exemplary AIMP2-DX2 epitope peptide. Analysis reagents and buffer were injected at the flow velocity of 15 μl/min. for 6 min, followed by washing for 20 min. Analysis was performed in sensorgram in which a response result of a blank without protein coating is subtracted from a response results between H5 antibody or IgG and the AIMP2-DX2 epitope peptides.
Background: In SPR one partner is held on a chip, and binding of the other changes the refractive index at the surface.

For another test, the target named is T5, FUSE-binding protein (UniProt Q96AE4 1-644, limits assumed).
T5 construct: Yeast two hybrid fusion; construct not described; also called FBP
T5 sequence (looked up): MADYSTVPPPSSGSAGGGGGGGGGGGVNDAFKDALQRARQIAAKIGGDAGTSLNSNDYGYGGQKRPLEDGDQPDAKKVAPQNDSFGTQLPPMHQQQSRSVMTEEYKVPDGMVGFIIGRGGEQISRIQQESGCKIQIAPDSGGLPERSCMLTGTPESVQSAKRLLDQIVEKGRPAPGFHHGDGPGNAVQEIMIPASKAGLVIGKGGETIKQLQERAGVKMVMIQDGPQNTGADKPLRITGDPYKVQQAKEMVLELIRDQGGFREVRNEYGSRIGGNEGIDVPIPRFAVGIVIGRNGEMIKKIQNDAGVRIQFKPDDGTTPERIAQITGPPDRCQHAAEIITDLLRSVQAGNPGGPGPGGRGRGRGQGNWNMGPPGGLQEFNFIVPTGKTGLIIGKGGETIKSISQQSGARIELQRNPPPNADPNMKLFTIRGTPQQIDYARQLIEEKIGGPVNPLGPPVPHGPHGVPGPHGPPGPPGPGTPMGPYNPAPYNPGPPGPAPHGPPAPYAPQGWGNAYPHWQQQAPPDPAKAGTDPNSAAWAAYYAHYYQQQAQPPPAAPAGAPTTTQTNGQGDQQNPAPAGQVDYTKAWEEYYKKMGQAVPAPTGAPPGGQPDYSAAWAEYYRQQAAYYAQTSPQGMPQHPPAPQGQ
Nature of the test: yeast two hybrid (FIG. 4e).

A further test deals with T6, Smad2 (human) (human, UniProt Q15796 1-467, limits assumed).
T6 construct: LexA fusion (pEG202) in yeast two hybrid; also called R-Smad2; Lex-Smad2
T6 sequence (Q15796 whole entry, the tested form may be a part): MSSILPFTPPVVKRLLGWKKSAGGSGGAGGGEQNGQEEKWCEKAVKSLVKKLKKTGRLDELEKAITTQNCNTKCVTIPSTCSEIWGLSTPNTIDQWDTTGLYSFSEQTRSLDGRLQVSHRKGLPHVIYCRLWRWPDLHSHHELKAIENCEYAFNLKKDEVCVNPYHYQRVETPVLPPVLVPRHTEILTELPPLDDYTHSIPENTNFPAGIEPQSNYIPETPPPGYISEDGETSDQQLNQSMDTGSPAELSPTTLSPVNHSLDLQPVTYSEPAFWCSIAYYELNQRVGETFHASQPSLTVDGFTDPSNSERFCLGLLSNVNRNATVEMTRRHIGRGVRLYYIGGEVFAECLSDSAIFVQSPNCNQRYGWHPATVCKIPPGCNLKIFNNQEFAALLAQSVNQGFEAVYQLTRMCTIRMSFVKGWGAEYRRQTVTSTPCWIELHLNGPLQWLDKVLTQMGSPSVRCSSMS
Nature of the test: yeast two hybrid (FIG. 4e).

As to B1, the binding result with H5 Fab is recorded as “binds”.
On to B2, for which the binding result in test [1] was “binds”; in test [2] it was “binds”; in test [3], “binds”; in test [4] it was “no binding”.

B3: H5 IgG antibody (antibody, V domains shown)
VH: QEQLVESGGGLVTPGGTLTLTCTASGFTISSYHMTWVRQAPGKGLEWIGVISNSGGTSYANWAKGRFTISKTSTTVDLKITSPTTEDTATYFCVRGVPGINSNLWGQGTLVTISS
VL: AQVLTQTPSSVSAAVGGTVTINCQSSQSVYSGNWLAWYQQKPGQPPKLLIYSTSTLASGVPSRFKGSGSGTQFTLTVSDLECDDAATYYCAGDYDGYKNAFGGGTKVVVKR
notes: also called H5 antibody (IgG); H5 antibody
Take B3: the binding result in test [5] is “binds”.

B4: AIMP2-DX2 protein (other)
chain: MPMYQVKPYHGGGAPLRVELPTCMYRLPNVHGRSYGPAPGAGHVQDYGALKDIVINANPASPPLSLLVLHRLLCEHFRVLSTVHTHSSVKSVPENLLKCFGEQNKKQPRQDYQLGFTLIWKNVPKTQMKFSIQTMCPIEGEGNIARFLFSLFGQKHNAVNATLIDSWVDIAIFQLKEGSSKEKAAVFRSMNSALGKSPWLAGNELTVADVVLWSVLQQIGGCSVTVPANVQRWMRSCENLAPFNTALKLLK
notes: Endogenous protein in H460 or SW460 cell lysates in the Western blots; LexA/B42 fusion in yeast two hybrid; 35S-labelled in vitro translation product (pET-28a) in the pull-down; also called p38DX2; AIMP2 lacking exon 2
Regarding B4, the binding result with FUSE-binding protein and with Smad2 (human) was “no binding” in each case.
